In article PMC4500170:

Test system: Cc1cc(O)cc2c(C(=O)O)c(O)ccc12
Test: purified protein
Conditions: 2.5 mM SAM, 100 mM phosphate pH 6.5, 25 °C, 10 μM enzyme

Substance | Km | kcat
NcsB1 (Streptomyces carzinostaticus; R11W) | 400 ± 68 µM | 0.01 ± 0.0005 s⁻¹
NcsB1 (Streptomyces carzinostaticus; Y293I) | 649 ± 9 µM | 0.0127 ± 0.000667 s⁻¹
NcsB1 (Streptomyces carzinostaticus; R11A) | 419 ± 61 µM | 0.0207 ± 0.001 s⁻¹
NcsB1 (Streptomyces carzinostaticus; R11K) | 319 ± 40 µM | 0.0197 ± 0.000833 s⁻¹
